One may read the stoichiometry N as the number of molecules, sites or subunits per partner or assembly.

The target in series [1] is MBP-IPAM C-ter (Chlamydia trachomatis serovar L2 (LGV 434/Bu)). Nature of the series: SEC + other: mass photometry.
In series [2] the target is MBP-InaC C-ter (Chlamydia trachomatis serovar L2 (LGV 434/Bu)). Put plainly: SEC + other: mass photometry.
For series [3], the target named is MBP-IncA C-ter (Chlamydia trachomatis serovar L2 (LGV 434/Bu)). Nature of the series: SEC + other: mass photometry.
Series [4] deals with the molecule itself. Nature of the series: SEC + other: mass photometry.
Series [5] deals with the molecule itself.

“And” between values parts separate entries of the source, which are not always exact repeats. Equal values may be shown once. Read-outs that look alike come from different tables or passages of the source.

Consider MBP-IPAM C-ter (domain or fragment), for which the stoichiometry N in series [1] is 2 and 3.
For MBP-InaC C-ter (domain or fragment), the stoichiometry N in series [2] was 2 and 3.
With MBP-IncA C-ter (domain or fragment), in series [3], the stoichiometry N came out at 4.

B1: MBP-CpoS C-ter (domain or fragment)
chain: ARARSRRVEIERQLEVVSMQIEELEEEYKALSEVYRANLEARRAVSKYCQELEEKILDLCKRHAATICSIEEDAKQEIRHQTERFKQRLQQNQNTCSQLTAELCKLRSENKALSERLQVQASRRKK
Turning to B1, the “stoichiometry N” value in series [4] is 4 and 8; in series [5], 2.

These data come from paper doi:10.1101/2024.12.01.621710 (bioRxiv, 2024).
